Patent US20180185450A1 (Sanofi, published 2018)
Numbered stars: 1 amine (or outer) side, 2 acyl side, 3 side chain; on linkers, the order of the positions; unused ones are H or OH. Square brackets hold non-standard residues; d marks the D form. Side chains are listed from the residue outwards. Ends that are not written are not given here. γGlu = O=C(O)[C@H](CCC(=O)[*:2])N[*:1]; X70 = not defined here; x53 = not defined here; Aib = CC(C)(N)C(=O)O

These binders were tested against T1, human GLP-1 receptor (human, UniProt P43220 24-463) (assay: cell-based or functional assay).

Binder | EC50 hGLP-1R (cAMP)
HXQGTFTSDLSKQKDSRRAQDFIEWLKAGGPSSGAPPPS (dSer at 2; K(γE-x53) at 14; C-terminal NH2) [SEQ ID NO: 74] | 4.2 pM
HXQGTFTSDLSKQKDSKAAQDFIEWLKAGGPSSGAPPPS (dSer at 2; K(γE-x53) at 14; C-terminal NH2) [SEQ ID NO: 30] | 3.2 pM
HXQGTFTSDLSKQKESRRAQDFIEWLKAGGPSSGAPPPS (dSer at 2; K(γE-x53) at 14; C-terminal NH2) [SEQ ID NO: 4] | 5 pM
HXQGTFTSDLSKQKESRRAXDFIEWLKAGGPSSGAPPPS (dSer at 2; K(γE-x53) at 14; Aib at 20; C-terminal NH2) [SEQ ID NO: 75] | 11.1 pM
HXQGTFTSDLSKQKDSRRAQDFIEWLKXGGPSSGAPPPS (dSer at 2; K(γE-x53) at 14; Aib at 28; C-terminal NH2) [SEQ ID NO: 78] | 17.8 pM
HXQGTFTSDLSKQKDSRRAQDFIEWLKKGGPSSGAPPPS (dSer at 2; K(γE-x53) at 14; C-terminal NH2) [SEQ ID NO: 84] | 8.1 pM
HXQGTFTSDLSKQKDSRRAQDFIEWLKRGGPSSGAPPPS (dSer at 2; K(γE-x53) at 14; C-terminal NH2) [SEQ ID NO: 125] | 31.4 pM
HXQGTFTSDLSKQKDSRRAQDFIEWLKNGGPSSGAPPPS (dSer at 2; K(γE-x53) at 14; C-terminal NH2) [SEQ ID NO: 97] | 3.5 pM
HXQGTFTSDLSKQKESKAAQDFIEWLKAGGPSSGAPPPS (dSer at 2; K(γE-x53) at 14; C-terminal NH2) [SEQ ID NO: 24] | 1.9 pM
H[Aib]QGTFTSDLSKQK([γGlu-x53])DSRRAQDFIEWLKNGGPSSGAPPPS-NH2 (reading uncertain) [SEQ ID NO: 115] | 2.4 pM
H[Aib]QGTFTSDLSKQK([γGlu-X70])EEEAARLFIEWLKAGGPSSGAPPPS-NH2 (reading uncertain) [SEQ ID NO: 215] | 5.3 pM
H[Aib]QGTFTSDLSKQK([γGlu-X70])DEEAARLFIEWLKAGGPSSGAPPPS-NH2 (reading uncertain) [SEQ ID NO: 216] | 4.7 pM

The binders below were run against T2, human glucagon receptor (human, UniProt P47871 26-477) (assay: cell-based or functional assay).
T2 sequence (P47871 26-477): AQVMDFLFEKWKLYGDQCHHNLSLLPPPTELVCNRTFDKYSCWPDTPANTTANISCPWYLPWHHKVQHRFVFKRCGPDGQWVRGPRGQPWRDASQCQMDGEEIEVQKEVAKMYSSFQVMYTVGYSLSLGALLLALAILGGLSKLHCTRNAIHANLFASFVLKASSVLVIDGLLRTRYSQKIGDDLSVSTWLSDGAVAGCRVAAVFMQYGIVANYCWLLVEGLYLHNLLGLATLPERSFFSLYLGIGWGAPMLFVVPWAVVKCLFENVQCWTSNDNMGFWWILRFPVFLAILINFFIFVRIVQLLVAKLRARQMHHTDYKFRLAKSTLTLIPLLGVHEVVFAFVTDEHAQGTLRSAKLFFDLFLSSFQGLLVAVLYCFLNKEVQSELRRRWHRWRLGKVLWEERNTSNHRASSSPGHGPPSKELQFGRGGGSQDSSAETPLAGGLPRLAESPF

Binder | EC50 hGlucagon-R (cAMP)
HXQGTFTSDLSKQKDSRRAQDFIEWLKAGGPSSGAPPPS (dSer at 2; K(γE-x53) at 14; C-terminal NH2) [SEQ ID NO: 74] | 1.3 pM
HXQGTFTSDLSKQKDSKAAQDFIEWLKAGGPSSGAPPPS (dSer at 2; K(γE-x53) at 14; C-terminal NH2) [SEQ ID NO: 30] | 7 pM
HXQGTFTSDLSKQKESRRAQDFIEWLKAGGPSSGAPPPS (dSer at 2; K(γE-x53) at 14; C-terminal NH2) [SEQ ID NO: 4] | 4 pM
HXQGTFTSDLSKQKESRRAXDFIEWLKAGGPSSGAPPPS (dSer at 2; K(γE-x53) at 14; Aib at 20; C-terminal NH2) [SEQ ID NO: 75] | 12.5 pM
HXQGTFTSDLSKQKDSRRAQDFIEWLKXGGPSSGAPPPS (dSer at 2; K(γE-x53) at 14; Aib at 28; C-terminal NH2) [SEQ ID NO: 78] | 1.6 pM
HXQGTFTSDLSKQKDSRRAQDFIEWLKKGGPSSGAPPPS (dSer at 2; K(γE-x53) at 14; C-terminal NH2) [SEQ ID NO: 84] | 4.3 pM
HXQGTFTSDLSKQKDSRRAQDFIEWLKRGGPSSGAPPPS (dSer at 2; K(γE-x53) at 14; C-terminal NH2) [SEQ ID NO: 125] | 6.9 pM
HXQGTFTSDLSKQKDSRRAQDFIEWLKNGGPSSGAPPPS (dSer at 2; K(γE-x53) at 14; C-terminal NH2) [SEQ ID NO: 97] | 1 pM
HXQGTFTSDLSKQKESKAAQDFIEWLKAGGPSSGAPPPS (dSer at 2; K(γE-x53) at 14; C-terminal NH2) [SEQ ID NO: 24] | 9.4 pM
H[Aib]QGTFTSDLSKQK([γGlu-x53])DSRRAQDFIEWLKNGGPSSGAPPPS-NH2 (reading uncertain) [SEQ ID NO: 115] | 1.9 pM
H[Aib]QGTFTSDLSKQK([γGlu-X70])EEEAARLFIEWLKAGGPSSGAPPPS-NH2 (reading uncertain) [SEQ ID NO: 215] | 42.6 pM
H[Aib]QGTFTSDLSKQK([γGlu-X70])DEEAARLFIEWLKAGGPSSGAPPPS-NH2 (reading uncertain) [SEQ ID NO: 216] | 19.5 pM

Biological target: T1, human GLP-1 receptor
Experiment: cell-based or functional assay
Remark: another data set of the same source

Binder | EC50 hGLP-1R (cAMP)
HXQGTFTSDLSKQKDSRRAQDFIEWLKAGGPSSGAPPPS (dSer at 2; K(γE-x53) at 14; C-terminal NH2) [SEQ ID NO: 74] | 4.2 pM
HXQGTFTSDLSKQKDSRRAQDFIEWLKNGGPSSGAPPPS (dSer at 2; C-terminal NH2) [SEQ ID NO: 183] | 1020 pM
HXQGTFTSDLSKQMDSRRAQDFIEWLKRGGPSSGAPPPS (dSer at 2; C-terminal NH2) [SEQ ID NO: 185] | 75.7 pM
HXQGTFTSDLSKQMDSRRAQDFIEWLKNGGPSSGAPPPS (Aib at 2; C-terminal NH2) [SEQ ID NO: 182] | 5.8 pM
HXQGTFTSDLSKQKDSKAAQDFIEWLKAGGPSSGAPPPS (dSer at 2; K(γE-x53) at 14; C-terminal NH2) [SEQ ID NO: 30] | 3.2 pM
HXQGTFTSDLSKQKESRRAQDFIEWLKAGGPSSGAPPPS (dSer at 2; K(γE-x53) at 14; C-terminal NH2) [SEQ ID NO: 4] | 5 pM
HXQGTFTSDLSKQKESRRAXDFIEWLKAGGPSSGAPPPS (dSer at 2; K(γE-x53) at 14; Aib at 20; C-terminal NH2) [SEQ ID NO: 75] | 11.1 pM
HXQGTFTSDLSKQMESRRAXDFIEWLKAGGPSSGAPPPS (dSer at 2; Aib at 20; C-terminal NH2) [SEQ ID NO: 190] | 21.3 pM
HXQGTFTSDLSKQKDSRRAQDFIEWLKXGGPSSGAPPPS (dSer at 2; K(γE-x53) at 14; Aib at 28; C-terminal NH2) [SEQ ID NO: 78] | 17.8 pM
HXQGTFTSDLSKQKDSRRAQDFIEWLKKGGPSSGAPPPS (dSer at 2; K(γE-x53) at 14; C-terminal NH2) [SEQ ID NO: 84] | 8.1 pM
HXQGTFTSDLSKQKDSRRAQDFIEWLKRGGPSSGAPPPS (dSer at 2; K(γE-x53) at 14; C-terminal NH2) [SEQ ID NO: 125] | 31.4 pM
HXQGTFTSDLSKQKESKAAQDFIEWLKAGGPSSGAPPPS (dSer at 2; K(γE-x53) at 14; C-terminal NH2) [SEQ ID NO: 24] | 2 pM
HXQGTFTSDLSKQMDSRRAQDFIEWLKXGGPSSGAPPPS (dSer at 2; Aib at 28; C-terminal NH2) [SEQ ID NO: 187] | 152 pM
HXQGTFTSDLSKQMDSRRAQDFIEWLKAGGPSSGAPPPS (dSer at 2; C-terminal NH2) [SEQ ID NO: 188] | 89.6 pM
HXQGTFTSDLSKQMESKAAQDFIEWLKAGGPSSGAPPPS (dSer at 2; C-terminal NH2) [SEQ ID NO: 189] | 5.6 pM
HXQGTFTSDLSKQMESRRAQDFIEWLKAGGPSSGAPPPS (dSer at 2; C-terminal NH2) [SEQ ID NO: 184] | 85.7 pM
HXQGTFTSDLSKQKESRRAQDFIEWLKAGGPSSGAPPPS (dSer at 2; K(Ac) at 14; C-terminal NH2) [SEQ ID NO: 194] | 159 pM
HXQGTFTSDLSKQMDSRRAQDFIEWLKKGGPSSGAPPPS (dSer at 2; C-terminal NH2) [SEQ ID NO: 186] | 102 pM
H[Aib]QGTFTSDLSKQK([γGlu-x53])DSRRAQDFIEWLKNGGPSSGAPPPS-NH2 (reading uncertain) [SEQ ID NO: 115] | 2.4 pM
H[Aib]QGTFTSDLSKQK([γGlu-X70])EEEAARLFIEWLKAGGPSSGAPPPS-NH2 (reading uncertain) [SEQ ID NO: 215] | 5.3 pM
HXQGTFTSDLSKQLDEEAARLFIEWLKAGGPSSGAPPPS (Aib at 2; C-terminal NH2) [SEQ ID NO: 224] | 1.3 pM
HXQGTFTSDLSKQLEEEAARLFIEWLKAGGPSSGAPPPS (Aib at 2; C-terminal NH2) [SEQ ID NO: 225] | 0.7 pM
H[Aib]QGTFTSDLSKQK([γGlu-X70])DEEAARLFIEWLKAGGPSSGAPPPS-NH2 (reading uncertain) [SEQ ID NO: 216] | 4.7 pM

Biological target: T2, human glucagon receptor
Experiment: cell-based or functional assay
Remark: another data set of the same source

Binder | EC50 hGlucagon-R (cAMP)
HXQGTFTSDLSKQKDSRRAQDFIEWLKAGGPSSGAPPPS (dSer at 2; K(γE-x53) at 14; C-terminal NH2) [SEQ ID NO: 74] | 1.3 pM
HXQGTFTSDLSKQKDSRRAQDFIEWLKNGGPSSGAPPPS (dSer at 2; C-terminal NH2) [SEQ ID NO: 183] | 916 pM
HXQGTFTSDLSKQMDSRRAQDFIEWLKRGGPSSGAPPPS (dSer at 2; C-terminal NH2) [SEQ ID NO: 185] | 262 pM
HXQGTFTSDLSKQMDSRRAQDFIEWLKNGGPSSGAPPPS (Aib at 2; C-terminal NH2) [SEQ ID NO: 182] | 419 pM
HXQGTFTSDLSKQKDSKAAQDFIEWLKAGGPSSGAPPPS (dSer at 2; K(γE-x53) at 14; C-terminal NH2) [SEQ ID NO: 30] | 7 pM
HXQGTFTSDLSKQKESRRAQDFIEWLKAGGPSSGAPPPS (dSer at 2; K(γE-x53) at 14; C-terminal NH2) [SEQ ID NO: 4] | 4 pM
HXQGTFTSDLSKQKESRRAXDFIEWLKAGGPSSGAPPPS (dSer at 2; K(γE-x53) at 14; Aib at 20; C-terminal NH2) [SEQ ID NO: 75] | 12.5 pM
HXQGTFTSDLSKQMESRRAXDFIEWLKAGGPSSGAPPPS (dSer at 2; Aib at 20; C-terminal NH2) [SEQ ID NO: 190] | 1560 pM
HXQGTFTSDLSKQKDSRRAQDFIEWLKXGGPSSGAPPPS (dSer at 2; K(γE-x53) at 14; Aib at 28; C-terminal NH2) [SEQ ID NO: 78] | 1.6 pM
HXQGTFTSDLSKQKDSRRAQDFIEWLKKGGPSSGAPPPS (dSer at 2; K(γE-x53) at 14; C-terminal NH2) [SEQ ID NO: 84] | 4.3 pM
HXQGTFTSDLSKQKDSRRAQDFIEWLKRGGPSSGAPPPS (dSer at 2; K(γE-x53) at 14; C-terminal NH2) [SEQ ID NO: 125] | 6.9 pM
HXQGTFTSDLSKQKDSRRAQDFIEWLKNGGPSSGAPPPS (dSer at 2; K(γE-x53) at 14; C-terminal NH2) [SEQ ID NO: 97] | 1.2 pM
HXQGTFTSDLSKQKESKAAQDFIEWLKAGGPSSGAPPPS (dSer at 2; K(γE-x53) at 14; C-terminal NH2) [SEQ ID NO: 24] | 9.8 pM
HXQGTFTSDLSKQMDSRRAQDFIEWLKXGGPSSGAPPPS (dSer at 2; Aib at 28; C-terminal NH2) [SEQ ID NO: 187] | 195 pM
HXQGTFTSDLSKQMDSRRAQDFIEWLKAGGPSSGAPPPS (dSer at 2; C-terminal NH2) [SEQ ID NO: 188] | 186 pM
HXQGTFTSDLSKQMESKAAQDFIEWLKAGGPSSGAPPPS (dSer at 2; C-terminal NH2) [SEQ ID NO: 189] | 1680 pM
HXQGTFTSDLSKQMESRRAQDFIEWLKAGGPSSGAPPPS (dSer at 2; C-terminal NH2) [SEQ ID NO: 184] | 991 pM
HXQGTFTSDLSKQKESRRAQDFIEWLKAGGPSSGAPPPS (dSer at 2; K(Ac) at 14; C-terminal NH2) [SEQ ID NO: 194] | 1290 pM
HXQGTFTSDLSKQMDSRRAQDFIEWLKKGGPSSGAPPPS (dSer at 2; C-terminal NH2) [SEQ ID NO: 186] | 590 pM
H[Aib]QGTFTSDLSKQK([γGlu-x53])DSRRAQDFIEWLKNGGPSSGAPPPS-NH2 (reading uncertain) [SEQ ID NO: 115] | 1.9 pM
H[Aib]QGTFTSDLSKQK([γGlu-X70])EEEAARLFIEWLKAGGPSSGAPPPS-NH2 (reading uncertain) [SEQ ID NO: 215] | 42.6 pM
HXQGTFTSDLSKQLDEEAARLFIEWLKAGGPSSGAPPPS (Aib at 2; C-terminal NH2) [SEQ ID NO: 224] | 2930 pM
HXQGTFTSDLSKQLEEEAARLFIEWLKAGGPSSGAPPPS (Aib at 2; C-terminal NH2) [SEQ ID NO: 225] | 2870 pM
H[Aib]QGTFTSDLSKQK([γGlu-X70])DEEAARLFIEWLKAGGPSSGAPPPS-NH2 (reading uncertain) [SEQ ID NO: 216] | 19.5 pM
